Patent US20220298237A1 (KEIO UNIVERSITY, published 2022)
Values joined by “and” are separate entries in the source; they are usually repeats but may differ in a detail not shown here. Equal entries are not always repeated.

T1: mouse aquaporin 3 (AQP3) on cells (mouse, UniProt Q8R2N1 1-292)
T1 sequence (looked up): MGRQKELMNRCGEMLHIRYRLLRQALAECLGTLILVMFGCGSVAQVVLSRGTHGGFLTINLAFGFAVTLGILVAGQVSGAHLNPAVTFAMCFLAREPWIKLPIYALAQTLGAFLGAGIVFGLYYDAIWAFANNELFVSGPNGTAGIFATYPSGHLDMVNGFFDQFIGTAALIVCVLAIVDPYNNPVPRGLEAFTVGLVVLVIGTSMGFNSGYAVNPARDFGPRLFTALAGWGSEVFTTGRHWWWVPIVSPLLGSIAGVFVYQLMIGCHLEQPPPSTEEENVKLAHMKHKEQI

T2: oligopeptide ATYPSGHLDM (SEQ ID NO: 1) (human and mouse)
T2 construct: Synthetic peptide; positions 148 to 157 of the human AQP3 polypeptide, identical in mouse; also called peptide used for immunization; oligopeptide 5
T2 peptide: ATYPSGHLDM

T3: oligopeptide SGPNGTAGIFATYPS (SEQ ID NO: 94)
T3 construct: Synthetic peptide, part of Loop C of AQP3
T3 peptide: SGPNGTAGIFATYPS

T4: oligopeptide TYPSGHLDM (SEQ ID NO: 96)
T4 construct: Synthetic peptide, part of Loop C of AQP3
T4 peptide: TYPSGHLDM

T5: oligopeptide YPSGHLDM (SEQ ID NO: 97)
T5 construct: Synthetic peptide, part of Loop C of AQP3; first diluted in DMSO
T5 peptide: YPSGHLDM

T6: oligopeptide PSGHLDM (SEQ ID NO: 98)
T6 construct: Synthetic peptide, part of Loop C of AQP3
T6 peptide: PSGHLDM

T7: oligopeptide SGHLDM (SEQ ID NO: 99)
T7 construct: Synthetic peptide, part of Loop C of AQP3
T7 peptide: SGHLDM

T8: oligopeptide GHLDM (SEQ ID NO: 100)
T8 construct: Synthetic peptide, part of Loop C of AQP3
T8 peptide: GHLDM

T9: oligopeptide ATYPSGHLD (SEQ ID NO: 101)
T9 construct: Synthetic peptide, part of Loop C of AQP3
T9 peptide: ATYPSGHLD

T10: oligopeptide ATYPSGHL (SEQ ID NO: 102)
T10 construct: Synthetic peptide, part of Loop C of AQP3
T10 peptide: ATYPSGHL

T11: oligopeptide ATYPSGH (SEQ ID NO: 103)
T11 construct: Synthetic peptide, part of Loop C of AQP3
T11 peptide: ATYPSGH

T12: oligopeptide ATYPSG (SEQ ID NO: 104)
T12 construct: Synthetic peptide, part of Loop C of AQP3
T12 peptide: ATYPSG

T13: oligopeptide TAGIFATYPSGHLDM (SEQ ID NO: 105)
T13 construct: Synthetic peptide, part of Loop C of AQP3
T13 peptide: TAGIFATYPSGHLDM

T14: oligopeptide AGIFATYPSGHLDM (SEQ ID NO: 106)
T14 construct: Synthetic peptide, part of Loop C of AQP3
T14 peptide: AGIFATYPSGHLDM

T15: oligopeptide GIFATYPSGHLDM (SEQ ID NO: 107)
T15 construct: Synthetic peptide, part of Loop C of AQP3
T15 peptide: GIFATYPSGHLDM

T16: oligopeptide IFATYPSGHLDM (SEQ ID NO: 108)
T16 construct: Synthetic peptide, part of Loop C of AQP3
T16 peptide: IFATYPSGHLDM

T17: oligopeptide FATYPSGHLDM (SEQ ID NO: 109)
T17 construct: Synthetic peptide, part of Loop C of AQP3
T17 peptide: FATYPSGHLDM

T18: oligopeptide SRGTHGGFL (SEQ ID NO: 2)
T18 construct: Synthetic peptide of AQP3 Loop A; also called Loop A peptide; control peptide
T18 peptide: SRGTHGGFL

T19: human aquaporin 3 (AQP3) on cells (human, UniProt Q92482 1-292)
T19 construct: whole, on cells; Water channel membrane protein; also called human AQP3; AQP3 on HaCaT cells
T19 sequence (looked up): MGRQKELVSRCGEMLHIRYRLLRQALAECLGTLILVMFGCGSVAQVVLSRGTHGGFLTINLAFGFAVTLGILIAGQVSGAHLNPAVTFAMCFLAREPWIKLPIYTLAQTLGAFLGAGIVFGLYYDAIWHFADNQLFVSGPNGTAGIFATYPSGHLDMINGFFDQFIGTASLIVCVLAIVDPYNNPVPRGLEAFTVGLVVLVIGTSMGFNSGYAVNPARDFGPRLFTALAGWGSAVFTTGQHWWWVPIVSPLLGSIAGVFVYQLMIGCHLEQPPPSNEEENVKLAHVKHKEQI

B1: SC-B6 (IgG) (antibody, V domains shown)
VH: QSVKESGGRLVTPGAPLTLTCTVSGFSLNNYAMTWVRQAPGKGLEWIGIINNDGISSTWYASWVKGRFIISKTSTTVDLKMTSLTTEDTATYFCARGGTSGYDIWGPGTLVTVSL
VL: AQGPTQTPSPVSAAVGGTVTINCQSSPSVYKNYLSWYQQKPGQPPKLLIYGASTLASGVPSRFKGSRSGTQFTLTISDVQCDDAATYYCAGGYIGSRDIFSFGGGTEVVVK
notes: also called anti AQP3 antibody SC-B6
B2: SC-F8 (IgG) (antibody, V domains shown)
VH: QTVKESGGRLVTPGGSLTLTCTVSRFSLSNYAMTWVRQAPGKGLEWIGIINNDGISSTWYASWVKGRFTISKTSTTMDLKMTSLTTEDTATYFCARGGTSGYDIWGPGTLVTVSL
VL: AQVLTQTPSPVSAAVGGTVTINCQSSPSVYKNYLSWYQQKPGQPPKLLIYGASTLASGVPSRFKGSGSGTQFTLTISDVQCDDAATYYCAGGYRGSSDIFAFGGGTEVVVK
notes: also called anti AQP3 antibody SC-F8
B3: BC-H9 (IgG) (antibody, V domains shown)
VH: QSLEESGGRLVTPGTPLTLTCTVSGFSLYTYAMGWVRQAPGKGLEWIGIINNDGISSTWYASWVKGRFTISKTSTTMDLKMTSLTTEDTATYFCARGGTSGYDIWGPGTLVTVSL
VL: AQGLTQTPSPVSAAVGGTVTINCQSGPSVYKNYLSWYQQKAGQPPKLLIYGASTLASGVPSRFKGSGSGTQFTLTISDVQCDDAATYYCAGGYRGSSDIFAFGGGTEVVVK
notes: also called anti AQP3 antibody BC-H9

Tests used:
[1] = target: T1, mouse aquaporin 3 (AQP3) on cells; test: cell-based or functional assay
[2] = target: T2, oligopeptide ATYPSGHLDM (SEQ ID NO: 1); test: ELISA on coated peptide
Description: (§1) To determine the important amino acid residues of an epitope in Loop C involved in binding to specific AQP3 antibody clones, peptides of varying lengths were produced. The sequences of these peptides are shown in column 2 of Table 4.
(§2) The various peptides and AQP3 antibody clones were subjected to ELISA binding analyses. […] The microtiter wells (Costar 2690) were coated with 50 μL of each peptide at 4° C. overnight. The wells were washed 3 times with PBS and blocked with 100 μL of 1% BSA/PBS at 37° C. for 1 hour. Each antibody was adjusted to 1 μg/mL in 1% SBA/PBS as above then serially diluted 1:5 in 1% BSA/PBS. The blocker was discarded and the wells were incubated with 50 μL of antibodies at 37° C. for 1.5 hours. The wells were washed 3 times with PBS and mouse antibodies were detected with 50 μL of goat anti-mouse IgG (H+L) HRP conjugate (ThermoFisher 31438) (1:5,000 in 1% BSA/PBS) and rabbit antibodies were detected with 50 μL of goat anti-rabbit IgG (H+L) HRP conjugate (ThermoFisher 31462) (1:5,000 in 1% BSA/PBS) at 37° C. for 1 hour. The wells were washed 3 times with PBS and developed with 50 μL of HRP substrate at RT for 5 min then stopped with 50 μL of 2N sulfuric acid and binding was measured with a plate reader.

[3] = target: T3, oligopeptide SGPNGTAGIFATYPS (SEQ ID …); test: ELISA on coated peptide
Description: as §1, §2

[4] = target: T4, oligopeptide TYPSGHLDM (SEQ ID NO: 96); test: ELISA on coated peptide
Description: as §1, §2

[5] = target: T5, oligopeptide YPSGHLDM (SEQ ID NO: 97); test: ELISA on coated peptide
Description: as §1, §2

[6] = target: T6, oligopeptide PSGHLDM (SEQ ID NO: 98); test: ELISA on coated peptide
Description: as §1, §2

[7] = target: T7, oligopeptide SGHLDM (SEQ ID NO: 99); test: ELISA on coated peptide
Description: as §1, §2

[8] = target: T8, oligopeptide GHLDM (SEQ ID NO: 100); test: ELISA on coated peptide
Description: as §1, §2

[9] = target: T9, oligopeptide ATYPSGHLD (SEQ ID NO: 101); test: ELISA on coated peptide
Description: as §1, §2

[10] = target: T10, oligopeptide ATYPSGHL (SEQ ID NO: 102); test: ELISA on coated peptide
Description: as §1, §2

[11] = target: T11, oligopeptide ATYPSGH (SEQ ID NO: 103); test: ELISA on coated peptide
Description: as §1, §2

[12] = target: T12, oligopeptide ATYPSG (SEQ ID NO: 104); test: ELISA on coated peptide
Description: as §1, §2

[13] = target: T13, oligopeptide TAGIFATYPSGHLDM (SEQ ID …); test: ELISA on coated peptide
Description: as §1, §2

[14] = target: T14, oligopeptide AGIFATYPSGHLDM (SEQ ID NO: …); test: ELISA on coated peptide
Description: as §1, §2

[15] = target: T15, oligopeptide GIFATYPSGHLDM (SEQ ID NO: …); test: ELISA on coated peptide
Description: as §1, §2

[16] = target: T16, oligopeptide IFATYPSGHLDM (SEQ ID NO: …); test: ELISA on coated peptide
Description: as §1, §2

[17] = target: T17, oligopeptide FATYPSGHLDM (SEQ ID NO: …); test: ELISA on coated peptide
Description: as §1, §2

[18] = target: T18, oligopeptide SRGTHGGFL (SEQ ID NO: 2); test: ELISA on peptide SEQ ID NO:2 (FIG. 16B)
[19] = target: T19, human aquaporin 3 (AQP3) on cells; test: fluorescence binding assay on HaCaT cells, 10 µg/mL
Description: (§3) HaCaT cells were reacted with each anti AQP3 antibody at concentrations of none, 1 ng/mL, 10 ng/mL, 100 ng/mL, 1 μg/mL, or 10 μg/mL at 4° C. for 1 hour. After washing the cells, a fluorescent-labeled secondary antibody was added and the reaction was allowed to occur additionally for 1 hour (at 4° C.). By measuring the fluorescence intensity, the binding property of each anti AQP3 antibody to cells was obtained.

[20] = target: T1, mouse aquaporin 3 (AQP3) on cells; test: fluorescence binding assay on PAM212 cells, 10 µg/mL
Description: as §3, with “PAM212” for “HaCaT”

[21] = target: T2, oligopeptide ATYPSGHLDM (SEQ ID NO: 1); test: ELISA on peptide SEQ ID NO:1, IgG, 50% binding response (FIG. 16A)
[22] = target: T1, mouse aquaporin 3 (AQP3) on cells; test: fluorescence binding assay on PAM212 cells, 1 ng/mL to 10 µg/mL (FIG. 17A)
Description: as §3, with “PAM212” for “HaCaT”

| Binder | binding signal (plate reader) [2] | binding signal (plate reader) [3] | binding signal (plate reader) [4] | binding signal (plate reader) [5] | binding signal (plate reader) [6] | binding signal (plate reader) [7] | binding signal (plate reader) [8] | binding signal (plate reader) [9] | binding signal (plate reader) [10] | binding signal (plate reader) [11] | binding signal (plate reader) [12] | binding signal (plate reader) [13] | binding signal (plate reader) [14] | binding signal (plate reader) [15] | binding signal (plate reader) [16] | binding signal (plate reader) [17] | binding result [18] | fold fluorescence intensity over no antibody [19] | fold fluorescence intensity over no antibody [20] | EC50 [21] | also measured |
| --- | --- | --- | --- | --- | --- | --- | --- | --- | --- | --- | --- | --- | --- | --- | --- | --- | --- | --- | --- | --- | --- |
| B1 | 3.98 | 2.02 | 4 | 3.96 | 2.23 | 0.135 | 0.097 | 3.92 | 4 | 3.44 | 0.915 | 3.96 | 3.83 | 3.79 | 3.69 | 3.87 | no binding | > 2 fold | ≥ 2 fold | 0.01 µg/mL and ~0.06 nM | decrease in H2O2 uptake in PAM212 cells against no antibody control [1]: ~2 fold |
| B2 | 3.97 | 2.99 | 3.92 | 3.94 | 1.56 | 0.071 | 0.06 | 3.91 | 3.99 | 3.81 | 1.77 | 4 | 3.92 | 3.86 | 3.91 | 3.92 | no binding | > 2 fold | ≥ 2 fold | 0.01 µg/mL and ~0.06 nM | – |
| B3 | 3.94 | 0.824 | 3.99 | 3.94 | 0.733 | 0.053 | 0.048 | 3.9 | 3.9 | 3.16 | 0.627 | 3.92 | 2.65 | 3.8 | 3.76 | 3.75 | no binding | – | – | 0.01 µg/mL and ~0.06 nM | binding result [22]: binds |
